According to patent publication US20220412989A1, “COMPOSITIONS AND METHODS FOR DETECTING CELLS UNDERGOING FERROPTOSIS USING AN ANTIBODY” (THE TRUSTEES OF COLUMBIA UNIVERSITY IN THE CITY OF NEW YORK, priority 2020, published 2022):
“Also recorded” adds a separate entry of the source.

Columns and labels:
[1] = biological target: T1, transferrin receptor protein 1 (Homo sapiens, UniProt P02786); assay: Antigen identification by immunoprecipitation-mass spectrometry; assay type: binding; details: HT-1080 cell lysate
T1 construct: First, we incubated 3F3-FMA with a cell lysate overnight; endogenous in cells; host or cells: HT-1080 (ATCC CRL-7951)
Procedure: HT-1080 cells were seeded in DMEM (Corning 10-013-CM) and 10% Hi-FBS with 1% penicillin and streptomycin (PS) with 1% MEM Non-Essential Amino Acids Solution (100×) (Thermo Fisher Scientific 11140-076) 16 h prior to use. DMSO or 1 μM of RSL3 was added and incubated for 4 h. Following treatment, the medium was aspirated from each dish and cells were washed twice with PBS. Cells were lysed with 70 μl lysis buffer (RIPA buffer from ThermoFisher, cat. 89900, 1 mM EDTA, 1 mM PMSF, 1× Halt™ protease inhibitor cocktail from ThermoFisher, cat. 78430 and 1× Halt™ phosphatase inhibitor cocktail from ThermoFisher, cat. 78426). Unlysed cells and debris were pelleted for 15 min at 16,000×g at 4° C. The samples were incubated with 10 μg of 3F3 FMA overnight at 4° C. with shaking. […]
Trypsin digestion was performed overnight at 37° C. […] CID fragmentation was applied with 35% collision energy and resulting fragments were detected using the rapid scan rate in the ion trap. […]
Raw mass spectrometric data were analyzed using MaxQuant v.1.6.1.0 (Cox and Mann, 2008) (MaxQuant, RRID:SCR_014485) and employed Andromeda for database search (Cox et al., 2011) at default settings with a few modifications. […]

HT-1080 cells = assay: Flow cytometry antibody staining without permeabilization; assay type: cell-based, human
Procedure: HT-1080 cells were treated with DMSO or 1 μM RSL3 for 4 h. The cells were harvested by 0.25% Trypsin-EDTA (1×) (Invitrogen 25200-114) and washed with HBSS once. The cells were resuspended in 5% goat serum (ThermoFisher 50197Z) for 30 min on ice. The cells were incubated with mAb 3F3 FMA (1:500 dilution), Transferrin Receptor/CD71 Monoclonal Antibody, Clone: H68.4, Invitrogen (Thermo Fisher Scientific Cat #13-6800, RRID:AB_2533029, 1:250 dilution), CD71 (3B8 2A1) (Santa Cruz Biotechnology Cat #sc-32272, RRID:AB_627167, 1:50 dilution), Anti-Malondialdehyde antibody (Abcam Cat #ab6463, RRID:AB_305484, 1:400 dilution), Anti-4 Hydroxynonenal antibody (Abcam Cat #ab46544, RRID:AB_722493, 1:50 dilution), and mouse mAb 1F83 (1:100 dilution), which specifically recognizes the malondialdehyde (MDA)-lysine adduct 4-methyl-1,4-dihydropyridine-3,5-dicarbaldehyde (MDHDC) (Yamada et al., 2001) for 1 h on ice. The cells were washed with HBSS for 5 min three times by centrifugation. […] Fluorescence intensity was measured on the FL1 channel with gating to record live cells only (gate constructed from DMSO treatment group). A minimum of 10,000 cells were analyzed per condition. […]

T1 sequence (P02786 whole entry): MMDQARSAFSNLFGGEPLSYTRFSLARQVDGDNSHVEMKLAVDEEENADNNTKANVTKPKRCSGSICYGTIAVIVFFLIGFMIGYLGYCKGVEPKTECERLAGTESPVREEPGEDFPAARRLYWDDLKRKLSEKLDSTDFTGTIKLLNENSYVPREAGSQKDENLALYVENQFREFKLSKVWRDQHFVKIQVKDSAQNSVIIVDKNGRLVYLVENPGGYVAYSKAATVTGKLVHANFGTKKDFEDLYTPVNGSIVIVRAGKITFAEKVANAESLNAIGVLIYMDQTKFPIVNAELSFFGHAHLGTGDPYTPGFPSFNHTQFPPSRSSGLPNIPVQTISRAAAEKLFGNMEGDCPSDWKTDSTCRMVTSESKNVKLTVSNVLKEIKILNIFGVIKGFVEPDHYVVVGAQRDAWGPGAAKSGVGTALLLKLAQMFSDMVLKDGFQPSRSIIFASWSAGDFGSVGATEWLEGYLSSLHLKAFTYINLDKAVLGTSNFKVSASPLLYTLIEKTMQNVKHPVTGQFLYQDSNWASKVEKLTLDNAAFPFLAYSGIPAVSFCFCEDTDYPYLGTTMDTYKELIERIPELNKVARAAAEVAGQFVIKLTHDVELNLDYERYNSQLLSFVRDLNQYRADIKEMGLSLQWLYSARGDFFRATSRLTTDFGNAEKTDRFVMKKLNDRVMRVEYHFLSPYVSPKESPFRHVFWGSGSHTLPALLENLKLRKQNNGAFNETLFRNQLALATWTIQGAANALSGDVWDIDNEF

amino acid coverage of TfR1 [1]: 53%
confidence identification of transferrin receptor protein 1 as target antigen [1]: 63%
B1: 3F3-FMA: murine monoclonal IgG1 raised against ferroptotic membrane fractions; antigen is human transferrin receptor protein 1 (TfR1) (antibody, V domains shown)
VH: EVLLQQSGTELVRPGALVKLSCKASGFNIQDLYIHWVKQRPEQGLEWIGWIDPETDNTIYDPKFQGKASITADTSSNTAYLQLSSLTSEDTAMYYCSTGLLQWYFDVWGAGTAVTVSS
VL: DIVMTQSPSSLAMSIGQKVTMRCKSSQSLLNSYNQKNCLAWYQQKPGQSPKLLLYFVSTRESGVPDRFIGSGSGTDFTLTISSVQAEDLADYFCQQHYSTPLTFGAGTKLELK
staining intensity in RSL3-treated cells by flow cytometry (HT-1080 cells; 1 μM RSL3, 4 h vs DMSO): increased intensities
staining intensity in STS-induced apoptosis by flow cytometry (HT-1080 cells; 1 μM STS, 6 h vs DMSO): decreased intensity; also recorded: decreased intensities
